How the values were obtained:
Assay in all cases: peptide or protein array; peptides synthesized on a microarray, incubated with recombinant CSN, probed with anti-CSN3 and HRP-conjugated secondary antibody; spot intensity normalized to C-CSNAP (A1), averaged from six arrays
[1] = molecular target: C-CSNAP peptide with a D-amino acid at Asp53 (peptide array)
[2] = molecular target: C-CSNAP peptide with a D-amino acid at Asp54 (peptide array)
[3] = molecular target: C-CSNAP peptide with a D-amino acid at Leu50 (peptide array)
[4] = molecular target: C-CSNAP peptide with a D-amino acid at Asp52 (peptide array)
[5] = molecular target: C-CSNAP peptide with a D-amino acid at Asp55 (peptide array)
[6] = molecular target: C-CSNAP peptide with a D-amino acid at Phe51 (peptide array)

increase of the array signal over the original 16AA C-CSNAP peptide [1]: > 20%
increase of the array signal over the original 16AA C-CSNAP peptide [2]: > 20%
increase of the array signal over the original 16AA C-CSNAP peptide [3]: > 20%
increase of the array signal over the original 16AA C-CSNAP peptide [4]: > 20%
increase of the array signal over the original 16AA C-CSNAP peptide [5]: > 20%
increase of the array signal over the original 16AA C-CSNAP peptide [6]: > 20%
Substance: recombinant COP9 signalosome complex (CSN) (from UniProt Q13098 1-491; Q9UNS2 1-423; Q92905 1-334; Q99627 2-209; Q8WXC6 1-57)
